Changes are numbered by the printed parent chain. Names may count otherwise.
B1: human IL-12p40 mutant hp40-N222L (ligand)
chain: IWELKKDVYVVELDWYPDAPGEMVVLTCDTPEEDGITWTLDQSSEVLGSGKTLTIQVKEFGDAGQYTCHKGGEVLSHSLLLLHKKEDGIWSTDILKDQKEPKNKTFLRCEAKNYSGRFTCWWLTTISTDLTFSVKSSRGSSDPQGVTCGAATLSAERVRGDNKEYEYSVECQEDSACPAAEESLPIEVMVDAVHKLKYELYTSSFFIRDIIKPDPPKNLQLKPLKNSRQVEVSWEYPDTWSTPHSYFSLTFCVQVQGKSKREKKDRVFTDKTSATVICRKNASISVRAQDRYYSSSWSEWASVPCS
notes: NO; 3 already carries N222L; also called Leu-222
B2: human IL-12p35 subunit, wild type (ligand, UniProt P29459 23-219, looked up)
chain: RNLPVATPDPGMFPCLHHSQNLLRAVSNMLQKARQTLEFYPCTSEEIDHEDITKDKTSTVEACLPLELTKNESCLNSRETSFITNGSCLASRKTSFMMALCLSSIYEDLKMYQVEFKTMNAKLLMDPKRQIFLDQNMLAVIDELMQALNFNSETVPQKSSLEEPDFYKTKIKLCILLHAFRIRAVTIDRVMSYLNAS
notes: also called hp35
B3: human IL-12p40 mutant hp40-N222Q (ligand)
chain: B1 chain with L200Q
notes: NO; 4 already carries N222Q; also called Gln-222

Tests used:
[1] = biological target: human IL-12p40 subunit, wild type (human) (UniProt P29460); assay: IL-12p70 ELISA of lysates of co-transfected COS-7 cells
[2] = biological target: B2; assay: as above
Description: 1.5 μg/Ml of tunicamycin was added in some experiments. After incubation for another 24 hours, supernatants and cell pellets were harvested by centrifugation. Supernatants were used for the SEAP assay and cell pellets were resuspended in 200 μl of lysis solution (Promega). The levels of IL-12p70 and IL-12p40 in both supernatants and cell lysates were measured by ELISA (R&D system). For immunoblotting, 10% or 12% sodium dodecyl-sulfate-polyacrylamide electrophoresis (SDS-PAGE) was conducted with supernatants and cell lysates. The proteins separated from the above experiment was electrotransfered to nylon membrane (Amersham). The proteins absorbed to the membrane were obtained by using biotin-labeled human IL-12 antibody (Amersham), horseradish peroxidase (HRP)-labeled streptavidin (PharMingen) and ECL kit (Amersham). The levels of IL-12p70 or IL-12p40 expression were measured by ELISA and presented relatively to the level of wild type, which is arbitrarily set at 100%.
^aTotal 20 μg of each DNA contruct was used for transfection into COS-7 cells by electroporation. For simultaneous transfection of two DNA constructs, 10 μg of each DNA construct was used. ^bThe levels of human and mouse IL-12p70 or IL-12p40 expression were measured by ELISA and presented relative to the wild-type, which is arbitrarily set at 100%. ^cThe equal amount of p70 in each mutant supernatant was used in the IFN-γ induction assay. The levels of induced IFN-γ were measured by ELISA and presented relative to the level of wild type, which is arbitrarily set at 100%. ^dIL-12p40 indicates the monomeric and homodimeric p40 form of IL-12p40, but not the p40 part of IL-12p70. ^eIL-12p70 indicates the heterodimer which consists of IL-12p35 and IL-12p40. ^fThe plasmid backbone used for independent expression of hIL-12p40, hIL-12p35, and their derivatives is pCIN-neo and is descibed as mock. ^g<1 indicates values below the detectable range of ELISA assay. ^hWhen the equal amount of p70 in each indicated mutant (hp40-N135Q) and wild-type supernatant is used in IFN-γ induction assay, the insufficient hp40 in each mutant supernatant compared to wild-type supernatantwas reconstituted with hp40 supernatant obtained after tranfection with hp40 only ⁱNumbers in ( ) mean each amount (μg) of cotransfected plasmid, pCIN-hp40-N222Q and pCIN-hp35.

[3] = biological target: B3; assay: co-transfection of hp40-N222Q plasmid with varied amounts of hp35 DNA, IL-12p70 ELISA

| IL-12p70 heterodimer in cell lysates (% of wild type) [1] [%] | IL-12p70 heterodimer in cell lysates (% of wild type) [2] [%] | binding result [3] | Molecule |
| --- | --- | --- | --- |
| 88 |  |  | human IL-12p35 mutant hp35-N251Q (from UniProt P29459 23-219) (ligand) |
| 72 |  |  | human IL-12p35 mutant hp35-N127Q (from UniProt P29459 23-219) (ligand) |
|  | 99 |  | human IL-12p40 mutant hp40-N135Q (from UniProt P29460 23-328) (ligand) |
| 71 |  |  | human IL-12p35 double mutant hp35-N127,141Q (from UniProt P29459 23-219) (ligand) |
|  | 97 |  | human IL-12p40 mutant hp40-N125Q (from UniProt P29460 23-328) (ligand) |
| 90 |  |  | human IL-12p35 mutant hp35-N141Q (from UniProt P29459 23-219) (ligand) |
|  | 89 |  | B1 |
| 100 |  | binds | B2 |
|  | 90 |  | B3 |
